# Test results from the supplement of paper PMC7877785.
# ± gives the uncertainty stated by the source.
# Test: self-splicing fitness, log relative to wild type (ln ratio); higher = more splicing; Tetrahymena group I intron in knt gene, E. coli kanamycin selection, DiMSum; sequences stand for … in CUCUCU…GGAGGGAAAAGUUAUCAGGCAUGCACCUGGUAGCUAGUCUUUAAACCAAUAGAUUGCAUCGGUUUAAAAGGCAAGACCGUCAAAUUGCGGGAAAGGGGUCAACAGCCGUUCAGUACCAAGUCUCAGGGGAAACUUUGAGAUGGCCUUGCAAAGGGUAUGGUAAUAAGCUGACGGACAUGGUCCUAACCACGCAGCCAAGUCCUAAGUCAACAGAUCUUCUGUUGAUAUGGAUGCAGUUCACAGACUAAAUGUCGGUCGGGGAAGAUGUAUUCUUCUCAUAAGAUAUAGUCGGACCUCUCCUUAAUGGGAGCUAGCGGAUGAAGUGAUGCAACACUGGAGCCGCUGGGAACUAAUUUGUAUGCGAAAGUAUAUUGAUUAGUUUUGGAGUACUCGUGGUCG
# Procedure, shortened: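 Pooled colonies went to amplicon sequencing on an Illumina HiSeq 2500 after six replicate transformations. The plates were LB agar with 100 μg/mL carbenicillin, 50 μM IPTG and 0.2% rhamnose, with or without 25 μg/mL kanamycin, incubated overnight at 37°C or 30°C. The E. coli BL21(DE3) library had all eight P1ex-region intron nucleotides randomised, the intron placed in the knt kanamycin-resistance gene on pET-22b(+). DiMSum fitness is the error-weighted combination of replicate fold changes, kanamycin against none, normalised to wild type.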
Sequence,self-splicing fitness (ln) (30 °C),self-splicing fitness (ln) (37 °C)
GCUUAGCAAUAUUACGUUAG,-1.56 ± 0.13,-1.1 ± 0.15
GCUUAGCAAUAUUACGUUCC,-0.313 ± 0.19,-0.542 ± 0.23
GCUUAGCAAUAUUACGUUCG,-0.857 ± 0.095,-0.972 ± 0.11
GCUUAGCAAUAUUACGUUUC,-1.2 ± 0.099,-0.547 ± 0.11
GGAAAGCAAUAUUACGAAAC,-1.37 ± 0.13,-0.659 ± 0.17
GGAAAGCAAUAUUACGAAAG,-4.01 ± 0.35,-3.08 ± 0.35
GGAAAGCAAUAUUACGAACC,-3.32 ± 0.33,-1.2 ± 0.19
GGAAAGCAAUAUUACGAAGA,-2.45 ± 0.3,-1.57 ± 0.21
GGAAAGCAAUAUUACGACAU,-0.445 ± 0.013,-0.0162 ± 0.033
GGAAAGCAAUAUUACGACCU,-0.756 ± 0.15,-0.363 ± 0.18
GGAAAGCAAUAUUACGAGAA,–,-1.29 ± 0.27
GGAAAGCAAUAUUACGAGGA,-2.88 ± 0.21,-1.93 ± 0.24
GGAAAGCAAUAUUACGAGUG,-3.38 ± 0.12,-1.85 ± 0.1
GGAAAGCAAUAUUACGAUGC,-0.209 ± 0.087,-0.26 ± 0.12
GGAAAGCAAUAUUACGCAAG,-1.26 ± 0.14,-1.13 ± 0.18
GGAAAGCAAUAUUACGCAGA,-3.75 ± 0.28,-1.52 ± 0.18
GGAAAGCAAUAUUACGCGUA,-1.45 ± 0.14,-1.52 ± 0.13
GGAAAGCAAUAUUACGCUGU,-1.07 ± 0.11,-0.375 ± 0.17
GGAAAGCAAUAUUACGCUUA,-0.976 ± 0.17,-0.998 ± 0.19
GGAAAGCAAUAUUACGGCCA,-0.368 ± 0.081,-0.0522 ± 0.1
GGAAAGCAAUAUUACGGUCU,-2.31 ± 0.12,-1.17 ± 0.15
GGAAAGCAAUAUUACGGUUC,-3.33 ± 0.43,-2.23 ± 0.49

Sequence,self-splicing fitness (ln) (30 °C),self-splicing fitness (ln) (37 °C)
GGAAAGCAAUAUUACGUAAU,-1.3 ± 0.07,-1.23 ± 0.12
GGACAGCAAUAUUACGAGCC,-1.49 ± 0.15,-2.56 ± 0.25
GGACAGCAAUAUUACGAGUG,-3.32 ± 0.17,-1.79 ± 0.15
GGACAGCAAUAUUACGAUAC,-0.672 ± 0.084,-0.478 ± 0.098
GGACAGCAAUAUUACGAUCA,-0.381 ± 0.087,0.0425 ± 0.11
GGACAGCAAUAUUACGCAAG,-1.69 ± 0.11,-1.41 ± 0.12
GGACAGCAAUAUUACGCACG,-0.391 ± 0.084,0.295 ± 0.1
GGACAGCAAUAUUACGCAUG,-0.84 ± 0.085,-0.235 ± 0.11
GGACAGCAAUAUUACGCAUU,-0.834 ± 0.062,-0.622 ± 0.078
GGACAGCAAUAUUACGCCGA,-0.609 ± 0.11,-0.306 ± 0.12
GGACAGCAAUAUUACGCCGC,–,-1.06 ± 0.5
GGACAGCAAUAUUACGCCGG,-3.95 ± 0.48,-2.11 ± 0.32
GGACAGCAAUAUUACGCCUC,-0.953 ± 0.32,-0.751 ± 0.3
GGACAGCAAUAUUACGCCUG,-2.65 ± 0.15,-0.758 ± 0.13
GGACAGCAAUAUUACGCGAU,-2.52 ± 0.17,-2.52 ± 0.17
GGACAGCAAUAUUACGCGCG,0.181 ± 0.094,-0.742 ± 0.11
GGACAGCAAUAUUACGCUCG,-0.123 ± 0.086,-0.0297 ± 0.11
GGACAGCAAUAUUACGCUCU,-2.19 ± 0.25,–
GGACAGCAAUAUUACGCUGU,-2.73 ± 0.21,-2.96 ± 0.31
GGACAGCAAUAUUACGGAGA,-2.98 ± 0.15,-2.61 ± 0.2
GGACAGCAAUAUUACGGGAU,-2.05 ± 0.087,-0.814 ± 0.1
